Literature values in patent publication US20080031874A1, “Treatment of endotoxemia using endotoxin neutralizing agents” (priority 2006, published 2008).

Legend:
[1] = tested on: gram-negative bacteria

B1: LBP: glycoprotein present in serum that recognizes the lipid A region of LPS (protein, UniProt P18428 26-481, looked up)
Lipopolysaccharide-binding …: ANPGLVARITDKGLQYAAQEGLLALQSELLRITLPDFTGDLRIPHVGRGRYEFHSLNIHSCELLHSALRPVPGQGLSLSISDSSIRVQGRWKVRKSFFKLQGSFDVSVKGISISVNLLLGSESSGRPTVTASSCSSDIADVEVDMSGDLGWLLNLFHNQIESKFQKVLESRICEMIQKSVSSDLQPYLQTLPVTTEIDSFADIDYSLVEAPRATAQMLEVMFKGEIFHRNHRSPVTLLAAVMSLPEEHNKMVYFAISDYVFNTASLVYHEEGYLNFSITDDMIPPDSNIRLTTKSFRPFVPRLARLYPNMNLELQGSVPSAPLLNFSPGNLSVDPYMEIDAFVLLPSSSKEPVFRLSVATNVSATLTFNTSKITGFLKPGKVKVELKESKVGLFNAELLEALLNYYILNTFYPKFNDKLAEGFPLPLLKRVQLYDLGLQIHKDFLFLGANVQYMRV
- direct cytotoxicity for gram-negative bacteria [1]: not directly cytotoxic
- complexes with rough and smooth form LPS: high affinity, 1:1 stoichiometric complexes
